# Data from PMC1277818, “Substrate specificity analysis of protein kinase complex Dbf2-Mob1 by peptide library and proteome array screening” (BMC Biochemistry, 2005).
# T1: FHHDbf2-H6Mob1TM9 (Saccharomyces cerevisiae, UniProt P22204+P40484)
# T1 construct: made in house; host or cells: Hi5 insect cells (baculovirus)
# T1 sequence (P22204 1-572): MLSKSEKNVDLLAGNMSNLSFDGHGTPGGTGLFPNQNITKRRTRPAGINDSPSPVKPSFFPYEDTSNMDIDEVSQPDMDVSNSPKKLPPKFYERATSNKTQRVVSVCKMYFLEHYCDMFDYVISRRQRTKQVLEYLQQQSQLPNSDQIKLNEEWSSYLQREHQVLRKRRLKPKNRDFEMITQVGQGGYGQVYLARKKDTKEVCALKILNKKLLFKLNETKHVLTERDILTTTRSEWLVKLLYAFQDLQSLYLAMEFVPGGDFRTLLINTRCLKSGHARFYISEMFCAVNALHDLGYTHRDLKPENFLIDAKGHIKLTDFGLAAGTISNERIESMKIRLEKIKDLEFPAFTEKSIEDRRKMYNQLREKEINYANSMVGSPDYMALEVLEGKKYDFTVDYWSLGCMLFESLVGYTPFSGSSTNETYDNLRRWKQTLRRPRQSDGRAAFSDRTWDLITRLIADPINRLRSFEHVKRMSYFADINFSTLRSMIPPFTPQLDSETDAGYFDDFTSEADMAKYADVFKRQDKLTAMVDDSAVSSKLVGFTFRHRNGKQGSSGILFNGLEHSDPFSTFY
# T1 sequence (P40484 1-314 partner): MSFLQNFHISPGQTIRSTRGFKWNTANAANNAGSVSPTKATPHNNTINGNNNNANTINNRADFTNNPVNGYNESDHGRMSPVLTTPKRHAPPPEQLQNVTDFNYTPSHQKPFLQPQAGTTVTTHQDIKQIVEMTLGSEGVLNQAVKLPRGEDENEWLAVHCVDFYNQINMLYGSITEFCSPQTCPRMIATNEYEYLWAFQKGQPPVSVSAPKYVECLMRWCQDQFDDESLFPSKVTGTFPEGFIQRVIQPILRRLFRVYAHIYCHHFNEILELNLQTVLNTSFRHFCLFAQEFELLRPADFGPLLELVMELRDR
# B1: YAL051W: GST fusion yeast protein on proteome chip (protein, UniProt P39720 1-1047, looked up)
# Oleate-activated …: MVENSTQKAPHAGNDDNSSTKPYSEAFFLGFNNPTPGLEAEHSSTSPAPENSETHNRKRNRILFVCQACRKSKTKCDREKPECGRCVKHGLKCVYDVSKQPAPRIPSKDAIISRLEKDMFYWKDKAMKLLTEREVNESGKRSASPINTNNASGDSPDTKKQHKMEPIYEQSGNGDINNGTRNDIEINLYRSHPTMIMSKVMKREVKPLSENYIIIQDCFLKILVTSVFLDTSKNTMIPALTANANITRAQPSVANNLLKLKEMLIRQCQTEDEKNRVNEFTDRILQNTNSNRNLKIGMLLSMLYNSVGYQYLEDHCPQGGEYSDLLRNLINECEAILPSYEIIERYKNHFYEYVYPSLPFIELEIFEESLSQTIFPDPNNPSKVQIRMGSTHLRAKVENLSLLLVILKLSYMSIRFLDHSTADSSFYLSKEIIDKYPIPNDFILLSQRCLASENWCACANENIISCLLYIWSFFAFSPEEGDFFLEHPTDVISSLIMMLSTSIGLHRDPSDFPQLISPSTSDKRTLNHRRILWLSIVTVCSFEASLKGRHSVSPISLMALFLNIKDPDSLTVYMNRVRGDLSDINNHKLLRIHKFTFKRAQLALLLSDLDNLTMTYYGSFHLHSIEFIREKIEIFVEENFPIVPLKSVAQDKSDLDDMNVISEMNILSSENSSSFHNRIMNKLLMLRTSMAVFLHFETLITKDKSIFPFYKKYFMVSCMDALSLINYFNKFFNGEYRHAISSLTSFNVTKFIQLALSSTIFSLLGIILRIGLAIHMLSSEVQKLSGTTDPRIKELNTKVEKFSTLQRDLESALEGIYCSASEHLRFTYFPVFKMLALFDVIVQRMRKGELWHGIFTMIQMEQMHSRIIKTLSITLGVKLDKKDRLLEELMACNHVANFSVEDIDELNRNIKKEIQISSGLKPPVNTIDLTNGEPFGNAVPTFTKTWSSSLDNLEKLSSAAAVGQSLDYNSGLRQGPLAGGGSKEQTPIAGMNNLNNSINATPIVDNSSGSQLPNGFDRGQANNTPFPGYFGGLDLFDYDFLFGNDFA
# modifications: GST tag
# notes: GST fusion yeast protein on proteome chip
# B2: YOR362C: GST fusion yeast protein on proteome chip (protein, UniProt P21242 2-288, looked up)
# Probable proteasome subunit …: TSIGTGYDLSNSVFSPDGRNFQVEYAVKAVENGTTSIGIKCNDGVVFAVEKLITSKLLVPQKNVKIQVVDRHIGCVYSGLIPDGRHLVNRGREEAASFKKLYKTPIPIPAFADRLGQYVQAHTLYNSVRPFGVSTIFGGVDKNGAHLYMLEPSGSYWGYKGAATGKGRQSAKAELEKLVDHHPEGLSAREAVKQAAKIIYLAHEDNKEKDFELEISWCSLSETNGLHKFVKGDLLQEAIDFAQKEINGDDDEDEDDSDNVMSSDDENAPVATNANATTDQEGDIHLE
# modifications: GST tag
# notes: as for B1
# B3: YDR226W: GST fusion yeast protein on proteome chip (protein, UniProt P07170 3-222, looked up)
# Adenylate kinase: SSESIRMVLIGPPGAGKGTQAPNLQERFHAAHLATGDMLRSQIAKGTQLGLEAKKIMDQGGLVSDDIMVNMIKDELTNNPACKNGFILDGFPRTIPQAEKLDQMLKEQGTPLEKAIELKVDDELLVARITGRLIHPASGRSYHKIFNPPKEDMKDDVTGEALVQRSDDNADALKKRLAAYHAQTEPIVDFYKKTGIWAGVDASQPPATVWADILNKLGKD
# modifications: GST tag
# notes: as for B1
# How the values were obtained:
# FHHDbf2-H6Mob1TM9 [1] = biological target: T1, FHHDbf2-H6Mob1TM9; test: Yeast proteome chip assay; assay type: biochemical; conditions: [γ-33P]ATP, chips in duplicate
# In short: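 GST-tagged yeast proteins (~4,400 strains) spotted on proteome microarrays, probed in duplicate with FHHDbf2-H6Mob1TM9 in DKB plus [γ-33P]ATP; kinase-dead Dbf2(N305A) and kinase-free buffer served as controls. Positives: 3 of 4 spots ≥2 SD above background, fourth ≥1.5 SD.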
# FHHDbf2-H6Mob1TM9 [2] = biological target: T1, FHHDbf2-H6Mob1TM9; test: Kinase assays of immunoprecipitated TAP-tagged proteins; assay type: biochemical; conditions: protein on IgG sepharose beads, ~13 ng Dbf2, 2 μCi [γ-32P]ATP, 30 min, room temperature, SDS-PAGE, autoradiography
# Protocol: TAP-tagged strains were obtained for 22 of the 25 top candidates. TAP-tagged alleles for three of the genes (YJL108C, YBR285W, and YBR108W) were not available, and therefore these candidates were not subjected to further analysis. Asynchronous cultures of the 22 TAP-tagged strains were grown and the TAP-tagged proteins immunoprecipitated with IgG sepharose and analyzed by Western blotting (Figure 2A). Candidates were determined to be phosphorylated if a radioactive signal was detected at the molecular weight predicted for the tagged protein. […] The 17 TAP-tagged proteins that were expressed and purified were used in Dbf2-Mob1 kinase assays (Figure 2B). Of the 17, 10 were determined to be phosphorylated.
# The TAP-tagged proteins were immunoprecipitated with IgG sepharose beads from asynchronous cultures, fractionated on SDS-PAGE and immunoblotted with anti-TAP. […] (B) The TAP-tagged proteins expressed in (A) were treated with ^FHHDbf2-^H6Mob1^TM9 in the presence of [γ-^32P]ATP, fractionated on SDS-PAGE and detected by autoradiography.
# Yeast strains containing TAP-tagged genes (Open Biosystems) were grown to OD600 ~2.0 in 25 mL of YPD. […] Immunoprecipitated TAP-tagged proteins were analyzed by SDS-PAGE and detected by Western blotting using the primary antibody anti-TAP (Open Biosystems) followed by goat anti-rabbit horseradish peroxidase (HRP)-conjugate (Bio-Rad), and ECL. […]
# [3] = tested on: kinase-inactive FHHDbf2(N305A)-H6Mob1TM9; test: Kinase assays of immunoprecipitated TAP-tagged proteins with the kinase-inactive complex; assay type: biochemical, Saccharomyces cerevisiae; conditions: protein on IgG sepharose beads, ~13 ng Dbf2, 2 μCi [γ-32P]ATP, 30 min, room temperature, SDS-PAGE, autoradiography
# [4] = Table 4, the 25 proteins with highest signal relative to protein amount
# [5] = Table 3, GST fusion proteins on proteome chip, computer analysis
Molecule,Slide Signal (after normalization) (FHHDbf2-H6Mob1TM9 [1]; [4]),Phosphorylation of TAP-tagged protein by Dbf2-Mob1 (FHHDbf2-H6Mob1TM9 [2]),Slide Signal (after normalization) (FHHDbf2-H6Mob1TM9 [1]; [5]),Phosphorylation of TAP-tagged protein by kinase-inactive Dbf2(N305A)-Mob1 [3]
B1,81.8589,,,
B2,0.9895,phosphorylated by Dbf2-Mob1,0.9895,not its kinase inactive form
B3,3.1016,phosphorylated by Dbf2-Mob1,3.1016,not its kinase inactive form
